These results are taken from patent publication US20140120098A1 (DANSK UNIVERSITET, published 2014).

For the test, the target named is T1, acetylated BSA (bovine, UniProt P02769 25-607, acetylated (N-acetyl groups; positions not stated); 125I-labelled or Alexa Fluor 488 C5 maleimide-labelled in the uptake experiments).
T1 construct: also called NAc-BSA; N-acetyl bovine serum albumin
Briefly: ELISA, plates coated with acetylated BSA, 5 mM CaCl2. A general note: In an ELISA, binding on a coated surface is turned into a signal by an enzyme label.

T1 sequence (P02769 25-607 limits assumed): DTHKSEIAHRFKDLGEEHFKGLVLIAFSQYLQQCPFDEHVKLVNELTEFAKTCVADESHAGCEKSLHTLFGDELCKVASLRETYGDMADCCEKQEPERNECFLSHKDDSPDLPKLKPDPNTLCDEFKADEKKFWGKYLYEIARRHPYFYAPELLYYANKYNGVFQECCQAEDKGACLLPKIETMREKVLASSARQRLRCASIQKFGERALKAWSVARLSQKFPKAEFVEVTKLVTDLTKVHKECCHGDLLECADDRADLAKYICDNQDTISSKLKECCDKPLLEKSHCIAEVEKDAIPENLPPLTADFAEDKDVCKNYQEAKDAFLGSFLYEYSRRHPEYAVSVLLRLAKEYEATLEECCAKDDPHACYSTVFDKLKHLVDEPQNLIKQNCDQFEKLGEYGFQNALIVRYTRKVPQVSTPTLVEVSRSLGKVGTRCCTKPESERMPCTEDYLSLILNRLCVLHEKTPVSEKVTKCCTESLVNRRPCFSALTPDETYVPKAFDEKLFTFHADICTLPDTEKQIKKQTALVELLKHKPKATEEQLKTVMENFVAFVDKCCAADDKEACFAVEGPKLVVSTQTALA

B1: FIBCD1 FReD A432V (receptor)
chain: ATGSRPRDCLDVLLSGQQDDGVYSVFPTHYPAGFQVYCDMRTDGGGWTVFQRREDGSVNFFRGWDAYRDGFGRLTGEHWLGLKRIHALTTQAAYELHVDLEDFENGTAYARYGSFGVGLFSVDPEEDGYPLTVADYSGTAGDSLLKHSGMRFTTKDRDSDHSENNCAAFYRGAWWYRNCHTSNLNGQYLRGAHASYVDGVEWSSWTGWQYSLKFSEMKIRPVREDR
Take B1: the binding result is “no binding”.

B2: FIBCD1 FReD H415G (receptor)
chain: ATGSRPRDCLDVLLSGQQDDGVYSVFPTHYPAGFQVYCDMRTDGGGWTVFQRREDGSVNFFRGWDAYRDGFGRLTGEHWLGLKRIHALTTQAAYELHVDLEDFENGTAYARYGSFGVGLFSVDPEEDGYPLTVADYSGTAGDSLLKHSGMRFTTKDRDSDHSENNCAAFYRGAWWYRNCGTSNLNGQYLRGAHASYADGVEWSSWTGWQYSLKFSEMKIRPVREDR
In the case of B2, the binding result is recorded as “no binding”.
